{"source": "patent US20030003547", "target": "T1, RecA (UniProt P0A7G6)", "T1 sequence": "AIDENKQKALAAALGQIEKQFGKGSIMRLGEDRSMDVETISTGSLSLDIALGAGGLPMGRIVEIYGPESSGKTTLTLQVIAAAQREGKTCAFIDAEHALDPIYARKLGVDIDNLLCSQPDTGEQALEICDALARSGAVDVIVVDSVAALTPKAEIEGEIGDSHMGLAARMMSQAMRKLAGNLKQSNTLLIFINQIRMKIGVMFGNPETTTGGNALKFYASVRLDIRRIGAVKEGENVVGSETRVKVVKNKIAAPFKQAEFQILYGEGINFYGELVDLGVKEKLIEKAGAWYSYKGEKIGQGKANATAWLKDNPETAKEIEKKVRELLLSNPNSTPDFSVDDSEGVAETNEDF", "experiment": "EMSA", "conditions": "5'-acridine; C5-propynyl-dU, 5-methyl-dC, 7-deaza-dG in TFO; triethyleneglycol spacer between TFO and adapter; with Y0Gorec plasmid, 15 uM RecA, ATPgammaS, ADP, 12.5 mM MgCl2; 22% without RecA; 100% of complex associated with plasmid in RecA reaction", "data": [{"sequence": "NNNNNTNTNNNGNGGNGCGCGTGGCCAGC [TFO1-S + R (GOREC with homologous 40-nt R)]", "values": [{"measurement": "activity (% joint molecules in 5 min)", "value": 80}]}]}
